B1: Tumor necrosis factor α—Related Apoptosis Inducing Ligand (protein, UniProt P50591 1-281, looked up)
Tumor necrosis factor ligand …: MAMMEVQGGPSLGQTCVLIVIFTVLLQSLCVAVTYVYFTNELKQMQDKYSKSGIACFLKEDDSYWDPNDEESMNSPCWQVKWQLRQLVRKMILRTSEETISTVQEKQQNISPLVRERGPQRVAAHITGTRGRSNTLSSPNSKNEKALGRKINSWESSRSGHSFLSNLHLRNGELVIHEKGFYYIYSQTYFRFQEEIKENTKNDKQMVQYIYKYTSYPDPILLMKSARNSCWSKDAEYGLYSIYQGGIFELKENDRIFVSVTNEHLIDMDHEASFFGAFLVG
notes: 281 amino acid type II transmembrane protein of the tumor necrosis factor α family; purchased from Biomol

Key:
Format in all cases: cell-based
LNCaP cells [1] = assay: MTT assay (cell survival); details: for cell survival: 400 ng/ml TRAIL and/or 10 μM Mifepristone for three days, FIG. 1A
Protocol: (§1) LNCaP were obtained from American Type Culture Collection (Rockville, Md.) and LNCaP C4-2 cells were purchased from Urocor Inc., Oklahoma City, Okla. Cells were grown in RPMI 1640 medium supplemented with 10% (LNCaP) or 5% (LNCaP C4-2) fetal bovine serum (Hyclone, Logan, Utah) and grown in the presence of 5% CO2 at 37° C. Cells were treated with 10 μM Mifepristone (Sigma, St. Louis, Mo.) for three days or with increasing concentrations (from 200 ng/ml to 600 ng/ml) of TRAIL (Biomol Research Laboratories, Inc., Plymouth Meetings, Pa.) for varying time intervals 2, 4, 6, 8, 16, 20 and 24 hours (hr). Thus, for treatment with Mifepristone, cells were treated with Mifepristone for three days and then some cells treated (without washing) with TRAIL for indicated periods. Upon completion of the experiment, cells were harvested, and total proteins, cytosol or mitochondrial fractions were isolated as described below. At least three experiments were conducted with a minimum of four plates per treatment per experiment. Two methods were used to measure induction of apoptosis by drug treatment: the MTT assay and the Apoptosense assay. The MTT assay measures mitochondrial enzyme activity and is indicative of the number of surviving cells. […] Cells were seeded in 96-well plates (6000 cells/well) and treatment was started 24 hr after seeding the cells. After completion of the treatment, cells were incubated at 37° C. with the MTT reagent for 3 hr and processed according to manufacturers instructions (Promega Corporation, Madison, Wis.). Color development was measured at 490 nm on a Spectra MAX 340 microplate reader (Molecular Devices, Menlo Park, Calif.).

LNCaP C4-2 cells [2] = assay: MTT assay (cell survival); details: for cell survival: 400 ng/ml TRAIL and/or 10 μM Mifepristone for three days, FIG. 1B
Protocol: as §1

LNCaP cells [3] = assay: Apoptosense assay (M30 ELISA, cleaved cytokeratin 18)
Protocol: LNCaP were obtained from American Type Culture Collection (Rockville, Md.) and LNCaP C4-2 cells were purchased from Urocor Inc., Oklahoma City, Okla. Cells were grown in RPMI 1640 medium supplemented with 10% (LNCaP) or 5% (LNCaP C4-2) fetal bovine serum (Hyclone, Logan, Utah) and grown in the presence of 5% CO2 at 37° C. Cells were treated with 10 μM Mifepristone (Sigma, St. Louis, Mo.) for three days or with increasing concentrations (from 200 ng/ml to 600 ng/ml) of TRAIL (Biomol Research Laboratories, Inc., Plymouth Meetings, Pa.) for varying time intervals 2, 4, 6, 8, 16, 20 and 24 hours (hr). Thus, for treatment with Mifepristone, cells were treated with Mifepristone for three days and then some cells treated (without washing) with TRAIL for indicated periods. Upon completion of the experiment, cells were harvested, and total proteins, cytosol or mitochondrial fractions were isolated as described below. At least three experiments were conducted with a minimum of four plates per treatment per experiment. Two methods were used to measure induction of apoptosis by drug treatment: the MTT assay and the Apoptosense assay. The MTT assay measures mitochondrial enzyme activity and is indicative of the number of surviving cells. […] Cells were plated in petri dishes and after completion of the treatment, cells were harvested and total protein extracted as described below. […] Color was developed by adding tetramethylbenzidine solution and the optical density of the bound antibody was determined at 450 nm on a Spectra MAX 340 microplate reader (Molecular Devices, Menlo Park, Calif.). Standard solution supplied by the supplier was used for generating standard curves.

LNCaP cells [4] = assay: Caspase-9 colorimetric activity assay; details: FIG. 4A
Protocol: (§2) LNCaP were obtained from American Type Culture Collection (Rockville, Md.) and LNCaP C4-2 cells were purchased from Urocor Inc., Oklahoma City, Okla. Cells were grown in RPMI 1640 medium supplemented with 10% (LNCaP) or 5% (LNCaP C4-2) fetal bovine serum (Hyclone, Logan, Utah) and grown in the presence of 5% CO2 at 37° C. Cells were treated with 10 μM Mifepristone (Sigma, St. Louis, Mo.) for three days or with increasing concentrations (from 200 ng/ml to 600 ng/ml) of TRAIL (Biomol Research Laboratories, Inc., Plymouth Meetings, Pa.) for varying time intervals 2, 4, 6, 8, 16, 20 and 24 hours (hr). Thus, for treatment with Mifepristone, cells were treated with Mifepristone for three days and then some cells treated (without washing) with TRAIL for indicated periods. Upon completion of the experiment, cells were harvested, and total proteins, cytosol or mitochondrial fractions were isolated as described below. At least three experiments were conducted with a minimum of four plates per treatment per experiment. As caspase-9 is a key protein in the formation of apoptosome, assays were performed to determine the activity of caspase-9. Caspase-9 activity was assayed using a colorimetric substrate, […] with a kit from Chemicon International, Inc. (Temecula, Calif.). Cleavage of the C-terminal peptide bond by the enzyme released p-nitroaniline, which was measured at 405 nm. Pure recombinant human caspase-9 was utilized as a positive control.

LNCaP C4-2 cells [5] = assay: Caspase-9 colorimetric activity assay; details: FIG. 4B
Protocol: as §2

[6] = 200 ng/ml TRAIL compared with 400 ng/ml, data not shown
[7] = 600 ng/ml TRAIL compared with 400 ng/ml, data not shown

Molecule | cell survival (LNCaP cells [1]) | cell survival (LNCaP C4-2 cells [2]) | M30 activity (in words) (LNCaP cells [3]) | caspase-9 activity (LNCaP cells [4]) | caspase-9 activity (LNCaP C4-2 cells [5]) | cell death at lower concentration of TRAIL (LNCaP cells [1]; [6]) | apoptosis at higher dose of TRAIL (LNCaP cells [1]; [7]) | cell death at lower concentration of TRAIL (LNCaP C4-2 cells [2]; [6]) | apoptosis at higher dose of TRAIL (LNCaP C4-2 cells [2]; [7])
CC#C[C@]1(O)CC[C@H]2[C@@H]3CCC4=CC(=O)CCC4=C3[C@@H](c3ccc(N(C)C)cc3)C[C@@]21C [Mifepristone] | little effect on survival | little effect on survival | lower M30 activity | induced caspase-9 activity | induced caspase-9 activity |  |  |  | 
B1 | did not alter cell survival significantly | reduced cell survival as early as 8 hr |  | induced caspase-9 activity | induced caspase-9 activity | lower cell death | did not increase apoptosis significantly | lower cell death | did not increase apoptosis significantly

Reference: US20020115613A1, “Treatment of prostate cancer” (priority 2001, published 2002)
